These results are taken from paper doi:10.1101/2024.03.03.583237 (bioRxiv, 2024).

Among the targets are ZC45 NTD-mFc (Bat SARS-like coronavirus ZC45 …, UniProt A0A2R3SUW7); SARS-CoV-1 NTD-mFc (SARS-CoV-1 (NC_004718, Tor2), UniProt P59594); RaTG13 NTD-mFc (Bat coronavirus RaTG13, UniProt A0ABF7PLN6); SARS-CoV-2 NTD-mFc (SARS-CoV-2 Wuhan-Hu-1 (NC_045512), UniProt P0DTC2).
Common to all, as to assay: live-cell binding assay

B1: S2L20-CVR (scFv, V domains shown)
VH: EVQLVESGGGVVQPGGSLRLSCAASGFTFNSYGMHWVRQAPGKGLEWVAFIRYDGGNKYYADSVKGRFTISRDNSKNTLYLQMKSLRAEDTAVYYCANLKDSRYSGSYYDYWGQGTLVTVS
VL: not shown
In the case of B1, the binding result in the test with ZC45 NTD-mFc was “no binding”; with SARS-CoV-1 NTD-mFc, “no binding”; in the test with RaTG13 NTD-mFc it was “binds”; with SARS-CoV-2 NTD-mFc, “binds”.
